Test results taken from the Human Domainome abundance scans (Beltran et al. 2025).
± gives the uncertainty stated by the source.

B1: Homeobox protein cut-like 1, residues 941 to 1008; numbered along this chain, P39880 (parent)
chain: QEVDTIELTRQVKEKLAKNGICQRIFGEKVLGLSQGSVSDMLSRPKPWSKLTQKGREPFIRMQLWLNG
B2: Connector enhancer of kinase suppressor of ras 2, residues 9 to 71; numbered along this chain, Q8WXI2 (parent)
chain: SKWSPSQVVDWMKGLDDCLQQYIKNFEREKISGDQLLRITHQELEDLGVSRIGHQELILEAVD

Variants of: B1
Experiment: abundance fitness (aPCA) (normalised: wild type 0, dead -1); higher = more abundant; growth selection in yeast, the domain comes from the species named
Conditions: Homo sapiens
QEVDTIELTRQVKEKLAKNGICQRIFGEKVLGLSQGSVSDMLSRPKPWPKLTQKGREPFIRMQLWLNG gave an abundance fitness of -0.231 ± 0.066. QEVDTIELTRQVKEKLAKNGICQRIFGEKVDGLSQGSVSDMLSRPKPWSKLTQKGREPFIRMQLWLNG gave an abundance fitness of -0.425 ± 0.086. In the case of QEVDTIELTRQVKEWLAKNGICQRIFGEKVLGLSQGSVSDMLSRPKPWSKLTQKGREPFIRMQLWLNG, the abundance fitness is reported as -0.238 ± 0.083. With QEVDTIELTRQVKEKLAKNGGCQRIFGEKVLGLSQGSVSDMLSRPKPWSKLTQKGREPFIRMQLWLNG the abundance fitness was -0.473 ± 0.071. With QEVDTIELTRQVKEKLAKNGICQRIFGEKVLGLSQGSVSDMLSRPKPWSKLTQKGREPFIRMGLWLNG the abundance fitness was -0.098 ± 0.056. QEVDTIELTRQVKEKLAKNGICQRIFGEKVLGLSQGSVSDMLSRPKPWSKLTQKGREPFIRMFLWLNG gave an abundance fitness of -0.258 ± 0.099. Work on QEVDTIELTRQVKEKLAKNGICQRIFGEKVLGLSQGSVSDMLSRYKPWSKLTQKGREPFIRMQLWLNG yielded an abundance fitness of -0.282 ± 0.077. Variant QEVDTIELTRQVKEKLAKNGICQRIFGEKVLGLSQGSVSDMLSRQKPWSKLTQKGREPFIRMQLWLNG has an abundance fitness of -0.461 ± 0.078. QEVDTIELTRQVKEKLAKNGICQRIFGEKVLGLSQGSVSDMLSRDKPWSKLTQKGREPFIRMQLWLNG gave an abundance fitness of -0.456 ± 0.11. Work on QEVDTIELTRQVKEKLAKNGICQRIFGEKVLGLSQGSVSDMLSRPKPWSKLTQKGREPFIRMQLWLGG yielded an abundance fitness of -0.04 ± 0.098. For QEVDTIELTRQVKHKLAKNGICQRIFGEKVLGLSQGSVSDMLSRPKPWSKLTQKGREPFIRMQLWLNG, the abundance fitness was -0.498 ± 0.23. QELDTIELTRQVKEKLAKNGICQRIFGEKVLGLSQGSVSDMLSRPKPWSKLTQKGREPFIRMQLWLNG gave an abundance fitness of 0.008 ± 0.052. Variant QEVDTIELMRQVKEKLAKNGICQRIFGEKVLGLSQGSVSDMLSRPKPWSKLTQKGREPFIRMQLWLNG has an abundance fitness of -0.384 ± 0.069. With QEVDTIELTRQVKEKLAKNGICPRIFGEKVLGLSQGSVSDMLSRPKPWSKLTQKGREPFIRMQLWLNG the abundance fitness was -0.044 ± 0.07. With QEVDTIELTRQVKEKLAKNGICQRIFMEKVLGLSQGSVSDMLSRPKPWSKLTQKGREPFIRMQLWLNG the abundance fitness was -0.208 ± 0.071. Work on QEVDTIELTRQVKEKLAKNGICQRIFSEKVLGLSQGSVSDMLSRPKPWSKLTQKGREPFIRMQLWLNG yielded an abundance fitness of -0.008 ± 0.053. With QEVDTIELTRQVKEKLAKFGICQRIFGEKVLGLSQGSVSDMLSRPKPWSKLTQKGREPFIRMQLWLNG the abundance fitness was 0.07 ± 0.094. QEVDTIELTRQVKEKCAKNGICQRIFGEKVLGLSQGSVSDMLSRPKPWSKLTQKGREPFIRMQLWLNG showed an abundance fitness of -0.073 ± 0.087. For QEVDTIELTRQVKEKLAKNGICQRIFGEKVLGLSQGSVSDMLSRPKPWSKLTQKGREPFIRMQLWLNI, the abundance fitness was -0.662 ± 0.16. In the case of QEVDTIELTRQVKEKLAKNGICQYIFGEKVLGLSQGSVSDMLSRPKPWSKLTQKGREPFIRMQLWLNG, the abundance fitness is reported as -0.101 ± 0.1. Variant QEVDTIELTRQVKEKLAKNGICQRIFGEKVLGLSQGSVSDMLSRPKPWSKLTQKGREPQIRMQLWLNG has an abundance fitness of -1.13 ± 0.2. For QEVDTIELTRQVKEKLAKNGICQRIFGEKVLGLSQGSVSDMLSRPKPWSKLTQKGREPIIRMQLWLNG, the abundance fitness was -0.525 ± 0.085. With QEVDTIELTRQVKEKLAKNGICQRIFGEKVLGLSQGSVKDMLSRPKPWSKLTQKGREPFIRMQLWLNG the abundance fitness was 0.039 ± 0.061. Work on QEVDTIELTRQVKEKLAKNGICQRIFGEKVLGLSQGSVSDMLQRPKPWSKLTQKGREPFIRMQLWLNG yielded an abundance fitness of 0.029 ± 0.071. QEVDTIELTRQVKEKLAKNVICQRIFGEKVLGLSQGSVSDMLSRPKPWSKLTQKGREPFIRMQLWLNG showed an abundance fitness of -0.441 ± 0.054. QEVDTIELTRQVKEKLAKNTICQRIFGEKVLGLSQGSVSDMLSRPKPWSKLTQKGREPFIRMQLWLNG gave an abundance fitness of -0.087 ± 0.064. QEVDTIELTRQVKEKLAKNGICQRIFGEKVLGLSQGSVSDMLSRPKPWSKLTQKGREPFISMQLWLNG gave an abundance fitness of -0.386 ± 0.065. Variant QEVDTIELTRQVKEKLAKNGICQRIFGEKVLGLSQGSVSDHLSRPKPWSKLTQKGREPFIRMQLWLNG has an abundance fitness of -0.291 ± 0.14. Work on QEVDTIALTRQVKEKLAKNGICQRIFGEKVLGLSQGSVSDMLSRPKPWSKLTQKGREPFIRMQLWLNG yielded an abundance fitness of 0.14 ± 0.47. With QEVDTIELTRQVKEKLAKNGICQRIFGEKVLGLSQGSVSDMLSRPKPWSKLTQKGREPFIRMQLRLNG the abundance fitness was -0.76 ± 0.081. In the case of QEVDTIELTRQVKEKLAKNGICQRIFGEKVLGLSQGSVSDMLSRPKPWSKLTQKGREPFIRMQLYLNG, the abundance fitness is reported as -0.309 ± 0.11. With QEVDTIELTRQVKEKLAKNGICQRIFGEKVLGLSQGSVSDMLSRPKPWSKLTQKGREPFIRMQSWLNG the abundance fitness was 0.068 ± 0.058. QEVDTIELTRQVKEKLAKNGICQRIFGEKVLGLSQGSVSDMLSRPKPWSKLTQKGREPFIRMQAWLNG showed an abundance fitness of 0.087 ± 0.06. Variant QEVDTIELTRQVKEKLAKNGICQRCFGEKVLGLSQGSVSDMLSRPKPWSKLTQKGREPFIRMQLWLNG has an abundance fitness of -0.283 ± 0.1. In the case of QEVDTIELTRQVKEKLAKNGICQRHFGEKVLGLSQGSVSDMLSRPKPWSKLTQKGREPFIRMQLWLNG, the abundance fitness is reported as 0.073 ± 0.12. With QEVDTIELTRQVKEKLAKNGICQREFGEKVLGLSQGSVSDMLSRPKPWSKLTQKGREPFIRMQLWLNG the abundance fitness was 0.125 ± 0.079. With QEVDTIELTRQVKEKLAKNGICQRIFGEKVLGRSQGSVSDMLSRPKPWSKLTQKGREPFIRMQLWLNG the abundance fitness was -0.213 ± 0.059. For QEVDTIELTRQVKEKLAKNGICQRIFGEKVLWLSQGSVSDMLSRPKPWSKLTQKGREPFIRMQLWLNG, the abundance fitness was -0.377 ± 0.11. Work on QEVDTIELTRQVKEKLAKNGICQRIFGEKVLNLSQGSVSDMLSRPKPWSKLTQKGREPFIRMQLWLNG yielded an abundance fitness of -0.204 ± 0.087. For QEVDTIELTRQVKEKLAKNGICQRIFGVKVLGLSQGSVSDMLSRPKPWSKLTQKGREPFIRMQLWLNG, the abundance fitness was -0.214 ± 0.056. QEVDTIELTRQVKEKLAHNGICQRIFGEKVLGLSQGSVSDMLSRPKPWSKLTQKGREPFIRMQLWLNG showed an abundance fitness of -0.412 ± 0.14. QEVDTIELTRQVKEKLAKNGICQRIFGEKVLGLSQGSVSDMLSRPKSWSKLTQKGREPFIRMQLWLNG gave an abundance fitness of -0.086 ± 0.066. QEVDTIELTRQVKEKLAKNGICQRIFGEKVLGLSQGSTSDMLSRPKPWSKLTQKGREPFIRMQLWLNG gave an abundance fitness of 0.164 ± 0.08. In the case of QEVDTIELTRQVKEKLAKNGICQRIFGEKVLGLSQGSVSDMLSRPKPWSKLTQKMREPFIRMQLWLNG, the abundance fitness is reported as -0.018 ± 0.092. Work on QEVDTIELTRQVKEKLAKNGICQRIFGEKVLGLSQGSVSDMLSRPKPWSKLTQKPREPFIRMQLWLNG yielded an abundance fitness of -0.517 ± 0.082.

Variants of: B2
Experiment: as above
Conditions: Homo sapiens
For I58G, the abundance fitness was -0.945 ± 0.24. I58A showed an abundance fitness of -0.799 ± 0.099. I58R showed an abundance fitness of -0.811 ± 0.076. Variant I58S has an abundance fitness of -0.714 ± 0.065. Variant I58E has an abundance fitness of -0.584 ± 0.078. In the case of I58F, the abundance fitness is reported as -0.033 ± 0.085. With I58Q the abundance fitness was -0.696 ± 0.092. With I58N the abundance fitness was -0.851 ± 0.12. With I58K the abundance fitness was -0.727 ± 0.12. In the case of I58L, the abundance fitness is reported as -0.096 ± 0.039. In the case of I58P, the abundance fitness is reported as -0.671 ± 0.085. I58Y gave an abundance fitness of -1.35 ± 0.46. With I58H the abundance fitness was -0.268 ± 0.29. I58V showed an abundance fitness of -0.374 ± 0.063. Variant I58W has an abundance fitness of -0.734 ± 0.18. For I58T, the abundance fitness was -0.688 ± 0.11. H54Y gave an abundance fitness of -0.863 ± 0.081. With H54R the abundance fitness was -0.793 ± 0.043. With H54W the abundance fitness was -1.27 ± 0.17. Work on H54T yielded an abundance fitness of -0.874 ± 0.049. H54V showed an abundance fitness of -0.982 ± 0.05. Work on H54S yielded an abundance fitness of -0.766 ± 0.039. D63L showed an abundance fitness of -0.176 ± 0.063. In the case of D63A, the abundance fitness is reported as -0.001 ± 0.045. With D63N the abundance fitness was -0.024 ± 0.06. D63W showed an abundance fitness of -0.311 ± 0.12. In the case of D63I, the abundance fitness is reported as -0.274 ± 0.063. In the case of D63C, the abundance fitness is reported as -0.025 ± 0.05. Variant D63Y has an abundance fitness of -0.096 ± 0.051. D63K gave an abundance fitness of -0.059 ± 0.087. For D63G, the abundance fitness was 0.041 ± 0.035. D63H gave an abundance fitness of 0 ± 0.045. D63P showed an abundance fitness of -0.792 ± 0.14. For D63R, the abundance fitness was 0.108 ± 0.046. D63Q showed an abundance fitness of -0.039 ± 0.24. D63E gave an abundance fitness of -0.012 ± 0.045. In the case of D63T, the abundance fitness is reported as -0.055 ± 0.057. For D63F, the abundance fitness was -0.233 ± 0.057. In the case of Q55K, the abundance fitness is reported as -0.051 ± 0.034. Q55H showed an abundance fitness of -0.861 ± 0.052. Work on Q55P yielded an abundance fitness of -0.654 ± 0.042. Work on Q55Y yielded an abundance fitness of -1.02 ± 0.16. Q55I gave an abundance fitness of -0.281 ± 0.042. Q55S showed an abundance fitness of -0.57 ± 0.034. In the case of Q55V, the abundance fitness is reported as -0.319 ± 0.029. Q55D gave an abundance fitness of -0.978 ± 0.093. Variant Q55C has an abundance fitness of -0.403 ± 0.043. Q55A showed an abundance fitness of -0.296 ± 0.03. Work on Q55E yielded an abundance fitness of -0.954 ± 0.097.
